# Measured values reported in paper PMC8042219, “Expression of Novel L-Leucine Dehydrogenase and High-Level Production of L-Tert-Leucine Catalyzed by Engineered Escherichia coli” (Frontiers in Bioengineering and Biotechnology, 2021).
# T1: BbLeuDH (Bdellovibrio bacteriovorus, UniProt A0A1Z3N8C0)
# T1 construct: gene B9G79_08965
# T1 sequence (A0A1Z3N8C0 1-376): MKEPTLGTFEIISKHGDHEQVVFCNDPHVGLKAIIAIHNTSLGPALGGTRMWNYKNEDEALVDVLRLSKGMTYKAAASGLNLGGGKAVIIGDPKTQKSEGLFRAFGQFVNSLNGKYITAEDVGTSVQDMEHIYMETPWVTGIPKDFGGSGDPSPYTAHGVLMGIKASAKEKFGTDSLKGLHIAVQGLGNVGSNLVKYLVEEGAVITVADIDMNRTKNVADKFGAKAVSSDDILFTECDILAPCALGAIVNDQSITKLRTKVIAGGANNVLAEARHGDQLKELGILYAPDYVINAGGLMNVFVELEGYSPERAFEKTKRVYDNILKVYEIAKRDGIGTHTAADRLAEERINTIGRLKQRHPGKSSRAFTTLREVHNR
# T2: TbLeuDH (Staphylospora marina, UniProt Z9JLC0NN60)
# T2 sequence (Z9JLC0NN60 1-365): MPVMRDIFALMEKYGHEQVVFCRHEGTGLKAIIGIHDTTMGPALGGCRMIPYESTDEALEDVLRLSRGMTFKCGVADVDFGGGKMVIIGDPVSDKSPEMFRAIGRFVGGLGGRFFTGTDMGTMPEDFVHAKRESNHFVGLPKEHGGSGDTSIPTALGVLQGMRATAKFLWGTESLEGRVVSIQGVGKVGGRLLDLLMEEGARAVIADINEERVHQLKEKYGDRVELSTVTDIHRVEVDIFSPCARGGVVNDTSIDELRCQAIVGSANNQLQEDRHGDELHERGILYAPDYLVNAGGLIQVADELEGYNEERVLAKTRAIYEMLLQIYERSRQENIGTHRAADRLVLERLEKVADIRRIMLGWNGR
# T3: CsLeuDH (Caldanaerobacter subterraneus, UniProt U5CQF4)
# T3 construct: gene O163_07585
# T3 sequence (U5CQF4 1-355): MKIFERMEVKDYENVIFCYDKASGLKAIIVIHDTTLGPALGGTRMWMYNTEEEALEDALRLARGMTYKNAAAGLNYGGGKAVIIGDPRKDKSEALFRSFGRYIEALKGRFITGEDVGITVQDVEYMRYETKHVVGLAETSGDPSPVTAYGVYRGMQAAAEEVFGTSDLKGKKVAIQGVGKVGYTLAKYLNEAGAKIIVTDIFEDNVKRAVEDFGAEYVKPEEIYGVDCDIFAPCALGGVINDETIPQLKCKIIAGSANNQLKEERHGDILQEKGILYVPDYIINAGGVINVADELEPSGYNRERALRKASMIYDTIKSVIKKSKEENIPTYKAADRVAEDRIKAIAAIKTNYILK
# B1: PfLeuDH (Planifilum fimeticola) (protein)
# chain: MKWFDYMERYDYEQLIFCQDKNSGLKAIIAIHDTTLGPALGGVRMWKYDSEEEAIVDALRLARGMTYKAAAAGLNLGGGKTVIIGDPRKDKNEEMFRALGRFIQGLNGRYITAEDVGTTEEDMDIIHQETRFVTGVSPAFGSSGNPSPVTAYGVYRGMKAAAKIAFGSDSLEGKTVAVQGVGSVAYHLCKHLHEEGARLIVTDIVRENVERAVRDFGAESVAPDKIYDVECDIFSPCALGAIINDETLPRLKCRVVAGSANNQLKEERHGDRLEELGIIYVPDYVINAGGLINVADELFGYNRERAMKKVETIYDNVLRVFEIAKRDGIPSYKAADRMAEERIESLTRSRSTFLRNERNVLNMV
# Legend:
# [1] = biological target: T1, BbLeuDH; assay: NADH absorbance at […] nm, specific activity; assay type: biochemical; conditions: reductive amination, 2 mM TMP, 0.1 mM NADH, 500 mM NH4Cl-NH3 buffer pH 9.5, 30 °C
# [2] = biological target: T2, TbLeuDH; assay: NADH absorbance at […] nm, specific activity; assay type: biochemical; conditions: reductive amination, 2 mM TMP, 0.1 mM NADH, 500 mM NH4Cl-NH3 buffer pH 9.5, 30 °C
# [3] = biological target: T3, CsLeuDH; assay: NADH absorbance at […] nm, specific activity; assay type: biochemical; conditions: reductive amination, 2 mM TMP, 0.1 mM NADH, 500 mM NH4Cl-NH3 buffer pH 9.5, 30 °C
# [4] = substrate: NC(=O)C1=CN([C@@H]2O[C@H](COP(=O)(O)OP(=O)(O)OC[C@H]3O[C@@H](n4cnc5c(N)ncnc54)[C@H](O)[C@@H]3O)[C@@H](O)[C@H]2O)C=CC1; assay: purified protein; assay type: biochemical, Planifilum fimeticola; conditions: reductive amination, NADH varied 0.05-0.35 mM, 40 mM TMP; standard assay 500 mM NH4Cl-NH3 buffer pH 9.5, 30 °C; pH 9.5; 30.0 °C; varied: cofactor
# [5] = substrate: CC(C)(C)C(=O)C(=O)O; assay: purified protein; assay type: biochemical, Planifilum fimeticola; conditions: reductive amination, TMP varied 1-20 mM, 0.3 mM NADH; standard assay 500 mM NH4Cl-NH3 buffer pH 9.5, 30 °C; pH 9.5; 30.0 °C
# [6] = substrate: NC(=O)c1ccc[n+]([C@@H]2O[C@H](COP(=O)(O)OP(=O)(O)OC[C@H]3O[C@@H](n4cnc5c(N)ncnc54)[C@H](O)[C@@H]3O)[C@@H](O)[C@H]2O)c1; assay: purified protein; assay type: biochemical, Planifilum fimeticola; conditions: oxidative deamination, NAD+ varied 0.1-4 mM, 4 mM L-leucine; varied: cofactor
# [7] = substrate: CC(C)C[C@H](N)C(=O)O; assay: purified protein; assay type: biochemical, Planifilum fimeticola; conditions: oxidative deamination, L-leucine varied 0.1-3 mM, 1 mM NAD+
Molecule,"NADH absorbance at 340 nm, specific activity [1]","NADH absorbance at 340 nm, specific activity [2]","NADH absorbance at 340 nm, specific activity [3]",Km [4] [µM],Vmax [4] [µmol/min/mg],kcat [4] [s⁻¹],kcat/Km [4] [M⁻¹ s⁻¹],Km [5] [µM],Vmax [5] [µmol/min/mg],kcat [5] [s⁻¹],kcat/Km [5] [M⁻¹ s⁻¹],Km [6] [µM],Vmax [6] [µmol/min/mg],kcat [6] [s⁻¹],kcat/Km [6] [M⁻¹ s⁻¹],Km [7] [µM],Vmax [7] [µmol/min/mg],kcat [7] [s⁻¹],kcat/Km [7] [M⁻¹ s⁻¹]
CC(C)(C)C(=O)C(=O)O [Trimethylpyruvate],All four soluble leucine dehydrogenases have catalytic activity for TMP,All four soluble leucine dehydrogenases have catalytic activity for TMP,All four soluble leucine dehydrogenases have catalytic activity for TMP,,,,,,,,,,,,,,,,
B1,,,,60,9.09,6.06,101000,3080,58.6,39.1,12700,110,2.72,1.81,16400,100,3.49,2.33,23300
